The source of these data is patent US20250188184A1.

In general, Kd refers to the free concentration of one partner at which half of the binding sites on the other are occupied at equilibrium, for simple one-to-one binding. Read a high Kd as weaker binding.

First the molecules themselves.
B1: CD3.74 (AC3403) (bispecific antibody, V domains shown)
VH: EVQLLESGGGIVQPGGSLKLSCAASGFTFNTYAMNWVRQAPGKGLEWVARIRSKTNNYATYYADSVKDRFTISRDDSKNTVYLQMNNLKTEDTAVYYCVRHENFGNSYVSWFAHWGQGTLVTVSS
VL: ELVVTQEPSLTVSPGGTVTLTCRSSNGAVTSSNYANWVQQKPGQAPRGLIGGTNKRAPGTPARFSGSLLGGKAALTLSGVQPEDEAVYYCALWYPNLWVFGGGTKLTVL
B2: CD3.81 (AC3410) (bispecific antibody, V domains shown)
VH: EVQLLESGGGIVQPGGSLKLSCAASGFTFNTYAMNWVRQAPGKGLEWVARIRSKYNNFATYYADSVKDRFTISRDDSKNTVYLQMNNLKTEDTAVYYCVRHENFGNSYVSWFAHWGQGTLVTVSS
VL: ELVVTQEPSLTVSPGGTVTLTCRSSNGAVTSSNYANWVQQKPGQAPRGLIGGTNKRAPGTPARFSGSLLGGKAALTLSGVQPEDEAVYYCALWYPNLWVFGGGTKLTVL
B3: CD3.82 (AC3411) (bispecific antibody, V domains shown)
VH: EVQLLESGGGIVQPGGSLKLSCAASGFTFNTYAMNWVRQAPGKGLEWVARIRSKYNNWATYYADSVKDRFTISRDDSKNTVYLQMNNLKTEDTAVYYCVRHENFGNSYVSWFAHWGQGTLVTVSS
VL: ELVVTQEPSLTVSPGGTVTLTCRSSNGAVTSSNYANWVQQKPGQAPRGLIGGTNKRAPGTPARFSGSLLGGKAALTLSGVQPEDEAVYYCALWYPNLWVFGGGTKLTVL
B4: CD3.80 (AC3409) (bispecific antibody, V domains shown)
VH: EVQLLESGGGIVQPGGSLKLSCAASGFTFNTYAMNWVRQAPGKGLEWVARIRSKYNNGATYYADSVKDRFTISRDDSKNTVYLQMNNLKTEDTAVYYCVRHENFGNSYVSWFAHWGQGTLVTVSS
VL: ELVVTQEPSLTVSPGGTVTLTCRSSNGAVTSSNYANWVQQKPGQAPRGLIGGTNKRAPGTPARFSGSLLGGKAALTLSGVQPEDEAVYYCALWYPNLWVFGGGTKLTVL
B5: CD3.89 (AC3418) (bispecific antibody, V domains shown)
VH: EVQLLESGGGIVQPGGSLKLSCAASGFTFNTYAMNWVRQAPGKGLEWVARIRSKYNNYATYEADSVKDRFTISRDDSKNTVYLQMNNLKTEDTAVYYCVRHENFGNSYVSWFAHWGQGTLVTVSS
VL: ELVVTQEPSLTVSPGGTVTLTCRSSNGAVTSSNYANWVQQKPGQAPRGLIGGTNKRAPGTPARFSGSLLGGKAALTLSGVQPEDEAVYYCALWYPNLWVFGGGTKLTVL
B6: CD3.78 (AC3407) (bispecific antibody, V domains shown)
VH: EVQLLESGGGIVQPGGSLKLSCAASGFTFNTYAMNWVRQAPGKGLEWVARIRSKYNDYATYYADSVKDRFTISRDDSKNTVYLQMNNLKTEDTAVYYCVRHENFGNSYVSWFAHWGQGTLVTVSS
VL: ELVVTQEPSLTVSPGGTVTLTCRSSNGAVTSSNYANWVQQKPGQAPRGLIGGTNKRAPGTPARFSGSLLGGKAALTLSGVQPEDEAVYYCALWYPNLWVFGGGTKLTVL
B7: CD3.86 (AC3415) (bispecific antibody, V domains shown)
VH: EVQLLESGGGIVQPGGSLKLSCAASGFTFNTYAMNWVRQAPGKGLEWVARIRSKYNNYATEYADSVKDRFTISRDDSKNTVYLQMNNLKTEDTAVYYCVRHENFGNSYVSWFAHWGQGTLVTVSS
VL: ELVVTQEPSLTVSPGGTVTLTCRSSNGAVTSSNYANWVQQKPGQAPRGLIGGTNKRAPGTPARFSGSLLGGKAALTLSGVQPEDEAVYYCALWYPNLWVFGGGTKLTVL
B8: CD3.75 (AC3404) (bispecific antibody, V domains shown)
VH: EVQLLESGGGIVQPGGSLKLSCAASGFTFNTYAMNWVRQAPGKGLEWVARIRSKWNNYATYYADSVKDRFTISRDDSKNTVYLQMNNLKTEDTAVYYCVRHENFGNSYVSWFAHWGQGTLVTVSS
VL: ELVVTQEPSLTVSPGGTVTLTCRSSNGAVTSSNYANWVQQKPGQAPRGLIGGTNKRAPGTPARFSGSLLGGKAALTLSGVQPEDEAVYYCALWYPNLWVFGGGTKLTVL
B9: CD3.83 (AC3412) (bispecific antibody, V domains shown)
VH: EVQLLESGGGIVQPGGSLKLSCAASGFTFNTYAMNWVRQAPGKGLEWVARIRSKYNNYGTYYADSVKDRFTISRDDSKNTVYLQMNNLKTEDTAVYYCVRHENFGNSYVSWFAHWGQGTLVTVSS
VL: ELVVTQEPSLTVSPGGTVTLTCRSSNGAVTSSNYANWVQQKPGQAPRGLIGGTNKRAPGTPARFSGSLLGGKAALTLSGVQPEDEAVYYCALWYPNLWVFGGGTKLTVL
B10: CD3.88 (AC3417) (bispecific antibody, V domains shown)
VH: EVQLLESGGGIVQPGGSLKLSCAASGFTFNTYAMNWVRQAPGKGLEWVARIRSKYNNYATYDADSVKDRFTISRDDSKNTVYLQMNNLKTEDTAVYYCVRHENFGNSYVSWFAHWGQGTLVTVSS
VL: ELVVTQEPSLTVSPGGTVTLTCRSSNGAVTSSNYANWVQQKPGQAPRGLIGGTNKRAPGTPARFSGSLLGGKAALTLSGVQPEDEAVYYCALWYPNLWVFGGGTKLTVL
B11: CD3.85 (AC3414) (bispecific antibody, V domains shown)
VH: EVQLLESGGGIVQPGGSLKLSCAASGFTFNTYAMNWVRQAPGKGLEWVARIRSKYNNYATDYADSVKDRFTISRDDSKNTVYLQMNNLKTEDTAVYYCVRHENFGNSYVSWFAHWGQGTLVTVSS
VL: ELVVTQEPSLTVSPGGTVTLTCRSSNGAVTSSNYANWVQQKPGQAPRGLIGGTNKRAPGTPARFSGSLLGGKAALTLSGVQPEDEAVYYCALWYPNLWVFGGGTKLTVL
B12: CD3.79 (AC3408) (bispecific antibody, V domains shown)
VH: EVQLLESGGGIVQPGGSLKLSCAASGFTFNTYAMNWVRQAPGKGLEWVARIRSKYNEYATYYADSVKDRFTISRDDSKNTVYLQMNNLKTEDTAVYYCVRHENFGNSYVSWFAHWGQGTLVTVSS
VL: ELVVTQEPSLTVSPGGTVTLTCRSSNGAVTSSNYANWVQQKPGQAPRGLIGGTNKRAPGTPARFSGSLLGGKAALTLSGVQPEDEAVYYCALWYPNLWVFGGGTKLTVL
B13: CD3.77 (AC3406) (bispecific antibody, V domains shown)
VH: EVQLLESGGGIVQPGGSLKLSCAASGFTFNTYAMNWVRQAPGKGLEWVARIRSKYENYATYYADSVKDRFTISRDDSKNTVYLQMNNLKTEDTAVYYCVRHENFGNSYVSWFAHWGQGTLVTVSS
VL: ELVVTQEPSLTVSPGGTVTLTCRSSNGAVTSSNYANWVQQKPGQAPRGLIGGTNKRAPGTPARFSGSLLGGKAALTLSGVQPEDEAVYYCALWYPNLWVFGGGTKLTVL
B14: CD3.87 (AC3416) (bispecific antibody, V domains shown)
VH: EVQLLESGGGIVQPGGSLKLSCAASGFTFNTYAMNWVRQAPGKGLEWVARIRSKYNNYATTYADSVKDRFTISRDDSKNTVYLQMNNLKTEDTAVYYCVRHENFGNSYVSWFAHWGQGTLVTVSS
VL: ELVVTQEPSLTVSPGGTVTLTCRSSNGAVTSSNYANWVQQKPGQAPRGLIGGTNKRAPGTPARFSGSLLGGKAALTLSGVQPEDEAVYYCALWYPNLWVFGGGTKLTVL
B15: CD3.84 (AC3413) (bispecific antibody, V domains shown)
VH: EVQLLESGGGIVQPGGSLKLSCAASGFTFNTYAMNWVRQAPGKGLEWVARIRSKYNNYTTYYADSVKDRFTISRDDSKNTVYLQMNNLKTEDTAVYYCVRHENFGNSYVSWFAHWGQGTLVTVSS
VL: ELVVTQEPSLTVSPGGTVTLTCRSSNGAVTSSNYANWVQQKPGQAPRGLIGGTNKRAPGTPARFSGSLLGGKAALTLSGVQPEDEAVYYCALWYPNLWVFGGGTKLTVL

In the assay the target is CD3 (target of the Pool 1 CD3.23 screen). As to the kind of experiment: Octet, crude lysate. On the technique in general: BLI is a label-free optical method that tracks binding on a fibre tip over time.
CD3 (target of the Pool 1 CD3.23 screen), sequence (P07766 23-126): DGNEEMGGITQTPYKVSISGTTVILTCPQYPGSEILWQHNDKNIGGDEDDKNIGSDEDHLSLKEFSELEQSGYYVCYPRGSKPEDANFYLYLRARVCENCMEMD
Regarding B1, the Kd amounted to 11.1 nM.

For B2, the Kd was determined as 6.1 nM.

B3 gave a Kd of 7.8 nM.

Regarding B4, the Kd stood at 11.3 nM.

B5 showed a Kd of 9.7 nM.

With B6, the Kd came out at 7.4 nM.

B7 returned a Kd of 183 nM.

For the molecule B8, the Kd amounted to 10.5 nM.

The molecule B9 yielded a Kd of 8.2 nM.

Molecule B10 yielded a Kd of 63.2 nM.

For B11, the Kd was found to be 939 nM.

Regarding B12, the Kd came to 8.3 nM.

In turn, B13 had a Kd of 575 nM.

Turning to B14, the Kd worked out at 17.9 nM.

The molecule B15 showed a Kd of 10.7 nM.
